This is an account of results in publication PMC5560549.

By Kd is commonly meant the concentration at which binding is half-saturated. High values mean a looser complex, low ones a tighter complex. As usually defined, the koff is the rate constant with which the complex falls apart. A lower koff goes with a long-lived complex. The kon is a measure of how fast the partners come together. High values mean fast association, low ones slow association. Broadly, the EC50 is the midpoint of the concentration-response curve.

The target in test [1] is human FcRn (neonatal Fc receptor), biotinylated (human) (UniProt P55899). The test is described as follows: SPR; Biacore 3000; biotinylated FcRn captured on streptavidin coupled to a CM5 chip; antibody 0-10 nM in HBS-EP pH 6.0 injected at 50 ul/min, 3 min association, 3 min dissociation; regeneration with HBS-EP pH 8.0; 1:1 Langmuir model.
In test [2] the target is human FcRn (Sino Biological), biotinylated (UniProt P55899). Briefly: SPR (Biacore 3000). Conditions: pH 6.0, not stated for this buffer (the HBS-EP+ used in the PCSK9 experiments contained 150 mM NaCl), HBS-EP buffer pH 6.0. Its composition is not given. The HBS-EP+ of the PCSK9 SPR section was 10 mM HEPES, 3. Background: SPR reads the build-up and loss of mass on a sensor chip optically.

For test [3] the target is unchanged. Briefly: ELISA. The settings on record: 37°C (incubations), PBS (concentration not stated), PBST (PBS + 0.05% (v/v) Tween 20) adjusted to pH 6.0 or pH 7.4 for the washes. The pH of the antibody dilution buffer is. For orientation: An ELISA detects its analyte on a solid surface through an enzyme-linked reagent.

In test [1], “F0016B, Fc variant T251Q/M429L of F0016A (antibody)” registered a Kd of 2.11 nM, a koff of 0.00302 s⁻¹ and a kon of 1.43e+06 M⁻¹ s⁻¹.

In test [2], “F0016C (alirocumab Fc M429L/N435S) M429L;N435S” had a ka of 1.36e+06 M⁻¹ s⁻¹ and a kd of 0.0024 s⁻¹. For the same substance, in test [3] (pH 6.0), the EC50 stood at 1.56 µg/mL. For the same substance, in test [3] (pH 7.4), the EC50 came to 16.5 µg/mL.

In test [1], “F0016A, a human IgG1 anti-PCSK9 mAb (alirocumab) (antibody)” gave a Kd of 4.88 nM, a koff of 0.00617 s⁻¹ and a kon of 1.27e+06 M⁻¹ s⁻¹.

In test [1], “F0016C, Fc variant M429L/N435S of F0016A (antibody)” returned a Kd of 1.76 nM, a koff of 0.0024 s⁻¹ and a kon of 1.36e+06 M⁻¹ s⁻¹.

In test [2], “F0016B (alirocumab Fc T251Q/M429L) T251Q;M429L” yielded a ka of 1.43e+06 M⁻¹ s⁻¹ and a kd of 0.00302 s⁻¹. The EC50 in test [3] (pH 6.0) stood at 3.47 µg/mL. Further, the half-maximal effective concentration (EC50) in test [3] (pH 7.4) was found to be 12.2 µg/mL.

In test [2], “F0016A (alirocumab sequence, wild-type Fc)” had a ka of 1.27e+06 M⁻¹ s⁻¹ and a kd of 0.00617 s⁻¹. Moreover, in test [3] (pH 6.0), the EC50 came to 30.4 µg/mL. In test [3] (pH 7.4), the EC50 came out at 45.1 µg/mL.

In the case of “F0016D (alirocumab Fc M253Y/S255T/T257E) M253Y;S255T;T257E”, the ka in test [2] was determined as 1.05e+06 M⁻¹ s⁻¹. In test [2], this substance returned a kd of 0.00201 s⁻¹. Further, the EC50 in test [3] (pH 6.0) was 1.75 µg/mL; in test [3] (pH 7.4), 8.87 µg/mL.

For “F0016D, Fc variant M253Y/S255T/T257E of F0016A (antibody)”, in test [1], the Kd is 1.91 nM, the koff came out at 0.00201 s⁻¹ and the kon was determined as 1.05e+06 M⁻¹ s⁻¹.
